Experimental data taken from paper PMC12065857 (Nature Communications, 2025).
No end group written: not given here.

Target: T1, paLptD, LptD from Pseudomonas aeruginosa (as the chain in paLptDEHis) (Pseudomonas aeruginosa, UniProt Q9I5U2 34-924)
T1 sequence: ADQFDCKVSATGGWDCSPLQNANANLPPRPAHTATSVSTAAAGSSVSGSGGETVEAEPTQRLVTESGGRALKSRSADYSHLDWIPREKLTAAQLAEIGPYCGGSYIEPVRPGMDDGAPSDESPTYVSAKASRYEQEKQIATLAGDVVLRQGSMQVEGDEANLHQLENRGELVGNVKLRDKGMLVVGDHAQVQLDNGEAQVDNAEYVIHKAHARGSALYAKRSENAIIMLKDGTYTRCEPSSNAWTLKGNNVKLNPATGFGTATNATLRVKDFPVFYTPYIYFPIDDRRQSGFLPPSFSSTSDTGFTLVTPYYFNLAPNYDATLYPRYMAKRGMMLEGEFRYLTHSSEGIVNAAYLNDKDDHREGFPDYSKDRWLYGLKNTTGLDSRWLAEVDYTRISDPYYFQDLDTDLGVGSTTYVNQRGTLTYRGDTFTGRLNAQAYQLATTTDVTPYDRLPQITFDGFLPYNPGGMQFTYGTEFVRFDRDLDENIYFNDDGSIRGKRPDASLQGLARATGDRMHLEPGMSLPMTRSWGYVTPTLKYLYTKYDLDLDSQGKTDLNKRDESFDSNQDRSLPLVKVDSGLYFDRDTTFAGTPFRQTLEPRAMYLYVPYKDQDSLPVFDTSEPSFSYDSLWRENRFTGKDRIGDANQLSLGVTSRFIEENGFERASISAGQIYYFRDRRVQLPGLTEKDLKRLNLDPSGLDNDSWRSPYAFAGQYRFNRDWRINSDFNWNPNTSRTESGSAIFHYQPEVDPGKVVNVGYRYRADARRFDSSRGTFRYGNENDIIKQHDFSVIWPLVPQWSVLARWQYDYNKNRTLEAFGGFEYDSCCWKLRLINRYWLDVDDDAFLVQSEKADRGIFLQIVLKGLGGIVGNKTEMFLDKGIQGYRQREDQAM
Test: crystal structure

CGLKGPLYFPPADKNAPPPTKPVETQTQSTVPDKNDRATGDGPSQVNY (natural protein, also: three acyl chains (R1, R2, R3) at the N-terminus) [LptM (formerly YifL), endogenous Escherichia coli lipoprotein]
binding result: binds
